# Assay results reported in article PMC5893644.
# Key:
# [1] = molecular target: BrYV P3a^P18L, 3xFlag- and GFP-tagged copies (Brassica yellows virus (BrYV-A)); experiment: SDS-PAGE and western blot (dimer band under denaturing conditions); total protein of agroinfiltrated N. benthamiana leaves in 2x SDS-PAGE buffer, 100 °C 10 min, 12.5% SDS-PAGE; antisera to GFP or RFP
# [2] = molecular target: P3a^P18L-RFP (Brassica yellows virus (BrYV-A)); experiment: as above
# [3] = molecular target: His.MBP-P3a^P18L fusion protein (Brassica yellows virus (BrYV-A)); experiment: SDS-PAGE and western blot (dimer band under denaturing conditions); E. coli Rosetta (DE3) induced with 0.1 mM IPTG at 18 °C for 20 h; 12.5% SDS-PAGE; anti-MBP monoclonal antibody
substance,measurement,setting,value
"BrYV P3a^P18L, 3xFlag- and GFP-tagged copies (from UniProt A0A897TIH8 1-45) (natural protein)",stoichiometry N,[1],2
P3a^P18L-RFP (from UniProt A0A897TIH8 1-45) (natural protein),stoichiometry N,[2],2
His.MBP-P3a^P18L fusion protein (from UniProt A0A897TIH8 1-45) (natural protein),stoichiometry N,[3],2
